According to PMC9712106:

Legend:
[1] = molecular target: PfRipr (residues 20 to 1086) (P. falciparum) (UniProt O97302); experiment: BLI; PfRipr or PfPTRAMP at 20 μg/ml immobilised on Anti-Penta-His (His1K) biosensors, twofold dilution series of PTRAMP–CSS or PfCSS; 25 °C, PBS pH 7.4, 0.1% BSA, 0.02% Tween-20; 1:1 model
[2] = molecular target: PfPTRAMP (residues 25 to 309) with a C-terminal His-tag (P. falciparum); experiment: as above

PfCSS (residues 20 to 290) (domain or fragment)
Kd [1]: 1.1 µM | Kd [2]: 19 µM

PTRAMP–CSS heterodimer (disulfide-linked PfPTRAMP 42–309 and PfCSS 20–290) (complex)
Kd [1]: 3.6 µM
